This assay deals with T1, human chemokine receptor CXCR4, C-terminally tagged with Rluc8 or mVenus (human), P61073.
T1 chain: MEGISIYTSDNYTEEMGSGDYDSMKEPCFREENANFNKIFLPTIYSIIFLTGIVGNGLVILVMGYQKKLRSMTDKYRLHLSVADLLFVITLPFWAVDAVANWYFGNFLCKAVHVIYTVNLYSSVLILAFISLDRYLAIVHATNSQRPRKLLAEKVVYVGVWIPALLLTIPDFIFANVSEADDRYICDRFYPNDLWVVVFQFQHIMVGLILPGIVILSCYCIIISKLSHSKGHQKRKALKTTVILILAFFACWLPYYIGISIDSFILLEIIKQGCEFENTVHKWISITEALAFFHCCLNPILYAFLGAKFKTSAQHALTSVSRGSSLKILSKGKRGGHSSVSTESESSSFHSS
The assay can be described thus: FRET or BRET. The following applies: remark: other sources report otherwise. For orientation: In BRET a luciferase serves as donor, and the signal depends on an acceptor being close.

B1: human chemokine receptor CXCR4, C-terminally tagged with Rluc8 or mVenus, P61073 1-352 (receptor)
chain: T1 chain
B1 registered a BRET50 of 0.11.

The record behind these values is article PMC5153698.
